In the assay the target is Polyketide synthase 13 (Pks13) of Mycobacterium smegmatis (Mycobacterium smegmatis) (UniProt A0R617). Put plainly: native gel or EMSA; blue native PAGE of the protein of both sizing-column peaks; purified in β-DDM.

“Polyketide synthase 13 (Pks13) of Mycobacterium smegmatis (from UniProt A0R617 1-1816) (enzyme)” showed a stoichiometry N of 2.

The values are drawn from publication doi:10.1101/2023.01.27.525930.
